Source: the supplement of paper PMC6755084

Tested on: F1*sub RNA substrate (template-directed ligation)
Assay: fraction ligated after 30 min (ligated reads / total reads); higher = more ligase activity; sequences stand for … in GAGACCGCAACTGAAAAGTTGT…AGTTCTGCACGTAGAAGCAAAAGGC
Conditions: 42 °C
Description: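 Chip-synthesised pool of F1* ligase ribozyme variants (all single and double substitutions, single, double and triple deletions in the catalytic core and GAA bulge, plus designed variants) was transcribed with T7 and reacted as a pool with excess substrate F1*sub for 30 min at 42 C in 50 mM EPPS pH 8.5, 25 mM MgCl2. Ligated and unligated bands were separated by PAGE, barcoded by RT and deep sequenced; fraction ligated = ligated reads / total reads per variant, relative activity = FL / FL of wild type (0.826). Sequences are the DNA template of the ribozyme.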

Sequence	fraction ligated
TATATTGTGTAAGACACTTTGGATGGGTTGA [3d761]	0.778
TATCACTTGTGTAAGACACTTTATGGGTTGA [3d1793]	0.0875
TATCACTTGTCTAAACACTTTGGATGGGTTG [3d1845]	0.792
TATCACTTGTCGTAGACATTGGATGGGTTGA [3d2028]	0.815
TATCCTTGTCGTAAACACTTGGATGGGTTGA [3d1058]	0.721
TATCCTTGTCGTAAGACACTTTGGAGGTTGA [3d1114]	0.00283
TATCCTTGTCGTAAGACATTTGGATGGGTTA [3d1095]	0.455
TACACTTGTCGTAAACACTTTGGATGGGTTA [3d680]	0.00723
TATACTTGTCTAGACACTTTGGATGGGTTGA [3d844]	0.732
TATCCTTGTCTAAGCACTTTGGATGGGTTGA [3d1018]	0.765
TTCACTTGTCGTAAACACTTTGGATGGGTTG [3d451]	0.177
TATCACTTGTCGTAAGACCTTGGAGGGTTGA [3d2186]	0.0676
TATCACGTCGTAGACACTTTGGATGGGTTGA [3d1298]	0.801
TTCACTTGTCGTAGACACTTTGGATGGGTTA [3d440]	0.341
TATCACTTGTCGTAAGCCTTTGATGGGTTGA [3d2115]	0.718
TATCACTTGTCGTAAGACACTTTGGAGGGTTG [2d295]	0.0513
TACACTTGTCGTAGACCTTTGGATGGGTTGA [3d663]	0.173
TATCACTTTCGTAAGACCTTTGGATGGGTTG [3d1553]	0.75
TATCACTTGTGTAGACACTTTGGATGGGTTA [3d1742]	0.828
TATCACGTCGTAAGCACTTTGGATGGGTTGA [3d1300]	0.768
TATCACTTGTCTAAGACACTTTGGATGGGTTA [2d206]	0.803
ATCACTTGGTAAGACACTTTGGATGGGTTGA [3d140]	0.735

Sequence	fraction ligated
TTACTTGTCGTAAGACACTTTGGATGGGTTA [3d296]	0.0531
TATCCTTGTCGTAAGAACTTTGGATGGTTGA [3d1080]	0.0325
TACACTTGTGTAAGAACTTTGGATGGGTTGA [3d622]	0.00557
TATACTTGTCGTAAGACACTTGGAGGGTTGA [3d928]	0.0325
TATCCTTGTCGTAAGACCTTTGATGGGTTGA [3d1084]	0.762
TATCACTTGTCGTAAGCACTTTGGTGGGTTA [3d2143]	0.0888
TATCACTTGTCGTAAGACACTTTGGTGGTTA [3d2273]	0.0182
TATCACTTGTCTAGACATTTGGATGGGTTGA [3d1828]	0.814
TATACTTGTCGTAAGACATTTGGATGGGTTGA [2d82]	0.751
TATCACTTGTCGTAAAACTTTGGTGGGTTGA [3d2062]	0.0841
TATCACTTGTCGTAAGACATTTGGATGGGTTA [2d274]	0.806
TATCACTTGTCGTAGCACTTTGGATGGGTTA [3d2011]	0.728
TATCACTTGCTAAGACACTTTGGAGGGTTGA [3d1609]	0.13
TATCACTTGCTAAACACTTTGGATGGGTTGA [3d1601]	0.777
TATCACTTGTCGTAAGACACTTTGGAGGTTA [3d2277]	0.0104
TATCACTTGTCGTAAGCACTTTGGTGGTTGA [3d2142]	0.118
TATCACTTGTCGTAAGACCTTTGATGGGTTGA [2d263]	0.76
ACACTTGTCGTAAGAACTTTGGATGGGTTGA [3d36]	0.218
TATCACTTGGTAAGAACTTTGGATGGGTTGA [3d1589]	0.804
TATCCTGTCGTAAGACCTTTGGATGGGTTGA [3d959]	0.772
TTCACTTGTCGTAAGAACTTTGATGGGTTGA [3d464]	0.119
TATCACTTTCGTAAGCACTTTGGAGGGTTGA [3d1535]	0.03

Sequence	fraction ligated
TATCACTGTCGTAAGACACTTTGGTGGGTTG [3d1456]	0.343
TATCACTTGTCGTAAGACACTTTGGATGGGTT [2d298]	0.772
TATCATTGTCGTAAGACTTTGGATGGGTTGA [3d1237]	0.802
TATCACTTGTCGTAAGAACTTTGGTGGGTTG [3d2175]	0.0265
TATCATTGTCGAAGACACTTGGATGGGTTGA [3d1207]	0.771
TATCACTGTCGTAAACATTTGGATGGGTTGA [3d1400]	0.822
TATCACTTGCGTAGACATTTGGATGGGTTGA [3d1631]	0.821
TATCACTTGTCGTAAGACACTTTGATGGGTTG [2d288]	0.755
TATCACTTGTGTAAGACTTTGGATGGGTTGA [3d1754]	0.868
TATACTTGTCGTAAGCACTTTGGATGGGTTGA [2d79]	0.778
ATCACTTGTCGTAAGACACTTTGGATGGGTTGA [1d1]	0.781
TACACTTGTCGTAAGCACTTTGGATGGGTTGA [2d58]	0.183
TATCACTGTTAAGACACTTTGGATGGGTTGA [3d1343]	0.828
TATCACTTGTCGAAGAACTTTGGATGGGTTA [3d1941]	0.779
TTCACTTGTCGTAAGAATTTGGATGGGTTGA [3d462]	0.693
TAATTGTCGTAAGACACTTTGGATGGGTTGA [3d508]	0.0528
TATCACTGCGTAAGACATTTGGATGGGTTGA [3d1335]	0.854
ATCACTTGTCGTAGACACTTTGGATGGTTGA [3d208]	0.766
ATCATTGTCTAAGACACTTTGGATGGGTTGA [3d90]	0.663
TTCACTTGCGTAAGACACTTTGATGGGTTGA [3d381]	0.055
TATCACTTGTCGTAAGACCTTTGGATGGGTTG [2d268]	0.828
TATCACTTGTCGTAGACACTTTATGGGTTGA [3d2042]	0.128

Sequence	fraction ligated
TATCACTTGTCGAAGCACTTGGATGGGTTGA [3d1928]	0.747
TATCACTTGCGTAAACACTTGGATGGGTTGA [3d1642]	0.802
TATCACTTGCGAAGACACTTTGGATGGTTGA [3d1623]	0.248
TATCATGTCGTAAGAACTTTGGATGGGTTGA [3d1130]	0.848
TATCATTGTCGAGACACTTTGGATGGGTTGA [3d1201]	0.783
TATCATTTCGTAAGACACTTTGGATGGGTTGA [2d110]	0.807
TATCACTTGTGTAAACACTTTGGTGGGTTGA [3d1749]	0.0929
TATCATTGTCGTAAGAATTTGGATGGGTTGA [3d1247]	0.796
TATCACTTTGTAAGACACTTTGGATGGGTTGA [2d147]	0.838
TATCACTTTCGAAGACACTTTGGATGGTTGA [3d1503]	0.0707
TATCACTTGTCGAAGACCTTTGGTGGGTTGA [3d1945]	0.218
TATCACTTGCGTAAGACCTTTGGAGGGTTGA [3d1670]	0.0866
TATACTTTCGTAAACACTTTGGATGGGTTGA [3d800]	0.307
TATCCTTGTCGTAAGACACTTGATGGGTTGA [3d1098]	0.745
TTCACTGTCGTAAGCACTTTGGATGGGTTGA [3d344]	0.8
TATACTGTCGAAGACACTTTGGATGGGTTGA [3d782]	0.71
TATCACTTGTCGTAAGACTTGGATGGGTTGA [3d2107]	0.771
TATCCTTGCGTAAGACACTTTGGATGGGTTG [3d999]	0.791
TATCACTTGTCGAAGACACTTTGGAGGTTGA [3d1974]	0.0837
TATCACTTGTCTAGACCTTTGGATGGGTTGA [3d1827]	0.737
TATCCTTGTCGTAAACACTTTGGATGGTTGA [3d1062]	0.0319
TATCACTTGTCGAAGACACTTTGGATGGTTA [3d1977]	0.364

Sequence	fraction ligated
TACACTTGTGTAAGACACTTTGGTGGGTTGA [3d627]	0.134
TATCACTTGCGTAAACCTTTGGATGGGTTGA [3d1640]	0.821
TATCACTTGTCGAAGACACTTTATGGGTTGA [3d1964]	0.16
TACACTGTCGTAAACACTTTGGATGGGTTGA [3d573]	0.181
TTCACTTGTCGAAGAACTTTGGATGGGTTGA [3d419]	0.45
TATCATTGTCGTAGACACTTTGGTGGGTTGA [3d1222]	0.356
TATCACTTGTCGTAAGAACTGGATGGGTTGA [3d2159]	0.802
TATCACTTGTCGTAAGAATTTGGATGGGTTGA [2d254]	0.8
TATCACTTGTCGTAAGCACTTTGAGGGTTGA [3d2137]	0.086
TATCACTTGCGTAAGAACTTTGGTGGGTTGA [3d1662]	0.0953
TATACTTGTCGTAAGCACTTTGGAGGGTTGA [3d899]	0.0271
TATCCTGTCGTAAGACACTTGGATGGGTTGA [3d961]	0.794
TATCACTGCGTAAGACACTTTGATGGGTTGA [3d1337]	0.763
ATCACGTCGTAAGACACTTTGGATGGGTTGA [3d105]	0.749
TTCCTTGTCGTAAACACTTTGGATGGGTTGA [3d305]	0.786
TTCTTGTCGTAAGACACTTTGGATGGGTTGA [3d277]	0.765
TCACTTGTCGTAAGACACTTTGGAGGGTTGA [3d20]	0.333
TATCACTGTCGTAAGCACTTTGATGGGTTGA [3d1412]	0.686
TTCACTGTCGAAGACACTTTGGATGGGTTGA [3d341]	0.77
TATCATTGCGTAAGCACTTTGGATGGGTTGA [3d1161]	0.799
